Assay results from publication PMC3297588.
pKd: −log10 of the molar value.

Molecular target: holo-hemoglobin (UniProt P01966)
Assay: SPR

UniProt P01966, sequence (P01966 whole entry, chain 1 of 2): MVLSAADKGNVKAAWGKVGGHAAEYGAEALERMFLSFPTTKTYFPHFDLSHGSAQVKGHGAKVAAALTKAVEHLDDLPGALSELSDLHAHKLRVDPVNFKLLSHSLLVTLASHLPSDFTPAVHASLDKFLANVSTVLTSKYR
UniProt P01966, sequence (P02070 whole entry, chain 2 of 2, further chain): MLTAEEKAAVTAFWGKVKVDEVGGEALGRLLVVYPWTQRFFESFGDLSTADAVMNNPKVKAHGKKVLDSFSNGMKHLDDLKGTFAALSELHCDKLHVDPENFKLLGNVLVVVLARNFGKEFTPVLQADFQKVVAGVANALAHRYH

Substance: IsdX1 (amino acids 26-146), wild-type, apo form (domain or fragment)
- pKd: 7.82
